# In PMC12126490, “The HP1 box of KAP1 organizes HP1α for silencing of endogenous retroviral elements in embryonic stem cells” (Nature Communications, 2025):
# B1: V488E KAP1: V488E mutant of KAP1, impaired in binding to HP1 (protein)
# chain: MAASAAAASAAAASAASGSPGPGEGSAGGEKRSTAPSAAASASASAAASSPAGGGAEALELLEHCGVCRERLRPEREPRLLPCLHSACSACLGPAAPAAANSSGDGGAAGDGTVVDCPVCKQQCFSKDIVENYFMRDSGSKAATDAQDANQCCTSCEDNAPATSYCVECSEPLCETCVEAHQRVKYTKDHTVRSTGPAKSRDGERTVYCNVHKHEPLVLFCESCDTLTCRDCQLNAHKDHQYQFLEDAVRNQRKLLASLVKRLGDKHATLQKSTKEVRSSIRQVSDVQKRVQVDVKMAILQIMKELNKRGRVLVNDAQKVTEGQQERLERQHWTMTKIQKHQEHILRFASWALESDNNTALLLSKKLIYFQLHRALKMIVDPVEPHGEMKFQWDLNAWTKSAEAFGKIVAERPGTNSTGPAPMAPPRAPGPLSKQGSGSSQPMEVQEGYGFGSGDDPYSSAEPHVSGVKRSRSGEGEVSGLMRKVPRESLERLDLDLTADSQPPVFKVFPGSTTEDYNLIVIERGAAAAATGQPGTAPAGTPGAPPLAGMAIVKEEETEAAIGAPPTATEGPETKPVLMALAEGPGAEGPRLASPSGSTSSGLEVVAPEGTSAPGGGPGTLDDSATICRVCQKPGDLVMCNQCEFCFHLDCHLPALQDVPGEEWSCSLCHVLPDLKEEDGSLSLDGADSTGVVAKLSPANQRKCERVLLALFCHEPCRPLHQLATDSTFSLDQPGGTLDLTLIRARLQEKLSPPYSSPQEFAQDVGRMFKQFNKLTEDKADVQSIIGLQRFFETRMNEAFGDTKFSAVLVEPPPMSLPGAGLSSQELSGGPGDGP
# modifications: left off: Strep, end not stated, kept
# How the values were obtained:
# [1] = system: endogenous retroelements in KAP1 cKO ESCs; assay: ATAC-seq chromatin accessibility; type: cell-based, mouse; conditions: exogenous expression in KAP1 cKO ESCs, 2 μg/mL doxycycline, 2 μM 4-OHT 48 h
# Protocol: ESCs were maintained under standard conditions on gelatin-coated plates at 37 °C at 5% CO2 in Knockout DMEM (Thermo Fisher) supplemented with NEAA, GlutaMAX, penicillin/streptomycin (Thermo Fisher), 15% ESC-screened fetal bovine serum (Hyclone), 0.1 mM 2-mercaptoethanol (Fisher), and leukemia-inhibitory factor (LIF). Generation of KAP1 cKO ESCs has been described previously. The piggybac transposon system was used to stably integrate transgenic Flag-tagged WT or V488E mutant KAP1 under control of an rtTA promoter (Systems Biosciences, PB-TRE-EGFP-EF1a-rtTA) into the inducible KAP1 cKO ESCs. Exogenous expression of WT or V488E mutant KAP1 was induced with 2 μg/mL doxycycline for 48 h and maintained in doxycycline prior to endogenous KAP1 deletion. KAP1 deletion was induced with 2 μM 4-OHT (Sigma) treatment for 48 h. […]
# The modified ATAC-sequencing protocol Omni-ATAC was performed. […] Number of further PCR cycles required was determined using KAPA Library Quantification Kit (KK4854). […]
# Quality of datasets was assessed using the FastQC tool. Raw reads were adapter and quality trimmed using Trimgalore. Trimmed reads were aligned to the mouse reference genome (mm10) with Bowtie2. Multimapping reads were randomly assigned. Optical duplicate reads were filtered using Picard (https://broadinstitute.github.io/picard/). Reads which mapped to the mitochondrial genome were removed with Samtools. […]
# FLAG-tagged HP1α = assay: pull-down with Strep-tagged KAP1, Western blot; type: binding; conditions: Strep-tagged full-length KAP1 mutant, HCT116 cells; 3 biological replicates
# Protocol: For all AP experiments, HCT116 cells were seeded in 10 cm plates (~4 million cells per dish) and transfected with Strep- and Flag-tagged plasmids one-day after seeding cells. Two days post-transfection, cells were collected in PBS and lysed with passive lysis buffer (PLB: 50 mM Tris-HCl pH 7.5, 150 mM NaCl, 1 mM DTT, 1.0% NP-40, 1.5 mM MgCl2, 5% v/v glycerol, and 1X complete, Mini EDTA-free, EASYpack Protease Inhibitor [Roche, Cat# 4693159001]) by resuspending cells in PLB, vortexing briefly, nutating for 15 min at 4 °C, and centrifuging the lysate (10,000 × g, 10 min, 4 °C). Strep-Tactin superflow resin (IBA Life Sciences, Cat# 2-1208-010), was equilibrated by centrifuging beads (2000 RPM, 2 min, 4 °C), removing storage buffer, and washing three times with PLB with nutation for 5 min at 4 °C. Beads were volumed back to their original volume, and 40 µL beads were used per AP and bound for 2 h. Beads were then washed with AP Wash Buffer (50 mM Tris-HCl pH 7.5, 250 mM NaCl, 1 mM DTT, 0.2% NP-40, 1.5 mM MgCl2, and 5% v/v glycerol), and eluted with Strep-tag Elution Buffer containing D-Desthiobiotin (IBA Life Sciences, Cat# 2-1000-025). […]
# Tryptophan fluorescence data are presented as average of three independent measurements ±SD. […]
molecule,measurement,setting,value
B1,"restoration of closed chromatin at IAPEz, MERVK10C and ETn",[1],could not restore a closed chromatin state to the same extent observed with expression of WT KAP1
same,pull-down of FLAG-tagged HP1α,FLAG-tagged HP1α,eliminated binding of exogenously expressed FLAG-tagged HP1α
